Common to all, as to test: fluorescence polarisation
For orientation: Polarisation of emitted light reports the rotation of a fluorescent probe.

The target in assay [1] is UBC9 (human SUMO E2, untagged) (human, UniProt P63279 1-158).
For assay [2], the target named is SUMO2 (construct not stated for this experiment) (human, UniProt P61956 1-95).
Assay [3] has as its target UBC9–SUMO2^B non-covalent complex (human, UniProt P63279;P61956).

As a reminder, the Kd is the equilibrium constant for the complex coming apart.

Chain of UBC9 (human SUMO E2, untagged) (P63279 whole entry): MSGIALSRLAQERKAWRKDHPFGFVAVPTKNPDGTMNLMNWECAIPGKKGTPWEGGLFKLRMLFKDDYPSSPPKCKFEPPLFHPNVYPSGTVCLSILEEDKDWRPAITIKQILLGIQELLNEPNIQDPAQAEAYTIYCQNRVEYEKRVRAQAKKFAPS

B1: Alexa488-labeled CysZNF451(2–56) (domain or fragment)
chain: CGDPGSEIIESVPPAGPEASESTTDENEDDIQFVSEGPLRPVLEYIDLVSSDDEEP
modifications: Alexa488-maleimide on the single engineered N-terminal cysteine
In the case of B1, the Kd in assay [1] is 10 to 16 µM; in assay [2], 120 to 150 µM; in assay [3], 2 µM.
